Experimental data taken from patent publication US20090010911A1, “METHODS AND COMPOSITIONS FOR AFFECTING CYCLOPHILIN A REGULATION OF KINASES IN MODULATING CELLULAR ACTIVITIES” (IOWA STATE UNIVERSITY RESEARCH FOUNDATION, INC., priority 2007, published 2009).

B1: Itk SH2 domain: isolated exogenous SH2 domain of Itk, purified from bacteria (protein)
chain: EWYNKSISRDKAEKLLLDTGKEGAFMVRDSRTPGTYTVSVFTKAIISENPCIKHYHIKETNDSPKRYYVAEKYVFDSIPLLIQYHQYNGGGLVTRLRYPVCSWRQKA
B2: PLCγ1 SH2C domain: isolated carboxy-terminal SH2 domain of PLCγ1 (protein)
chain: QTNAHESKEWYHASLTRAQAEHMLMRVPRDGAFLVRKRNEPNSYAISFRAEGKIKHCRVQQEGQTVMLGNSEFDSLVDLISYYEKHPLYRKMKLRYPI

Key:
Lck kinase domain = assay: Pull-down assay of Lck kinase domain with Itk SH2 domain; assay type: binding; settings: anti-Myc immunoprecipitation, anti-His blot
Description: The Itk SH2 domains were immunoprecipitated using an anti-Myc antibody and the samples were western blotted with an anti-His antibody to detect the presence of the Lck kinase domain. Lanes 1 and 2 are beads alone control.
The samples were washed, boiled, resolved on an SDS-PAGE gel, transferred to PVDF membrane and western blotted with an anti-His antibody (clone HIS.H8 from Upstate). • (1) Wilcox, H. M., and Berg, L. J. (2003) Itk phosphorylation sites are required for functional activity in primary T cells. J Biol Chem 278, 37112-21. • (2) Hawkins, J., and Marcy, A. (2001) Characterization of Itk tyrosine kinase: contribution of noncatalytic domains to enzymatic activity. Protein Expr Purif 22, 211-9.

Itk kinase domain = molecular target: T1, Itk kinase domain (Mus musculus, UniProt Q03526); assay: Pull-down assay of SH2 domains with Itk kinase domain; assay type: binding; settings: purified tagged proteins
T1 construct: Purified 0.5 μM FLAG-tagged Itk kinase domain (Itk KD) immobilized on an anti-FLAG-resin; made in house; host or cells: Sf9 insect cells (baculovirus)
T1 sequence (Q03526 368-620 limits assumed): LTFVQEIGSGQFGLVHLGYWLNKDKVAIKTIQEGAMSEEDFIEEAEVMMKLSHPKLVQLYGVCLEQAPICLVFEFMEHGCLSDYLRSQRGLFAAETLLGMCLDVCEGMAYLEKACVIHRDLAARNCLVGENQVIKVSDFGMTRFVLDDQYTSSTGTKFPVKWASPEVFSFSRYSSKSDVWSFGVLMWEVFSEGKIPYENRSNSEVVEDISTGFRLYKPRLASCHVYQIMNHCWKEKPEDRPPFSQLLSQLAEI
Description: 3(a) Empty anti-FLAG resin (lane 1) or purified FLAG-tagged Itk kinase domain (Itk KD) immobilized on an anti-FLAG-resin (lanes 2 and 3) were incubated with purified myc-tagged control protein (lane 2) or myc-tagged Itk SH2 domain (lanes 1 and 3) in a pull-down assay. […] 3(b) Purified FLAG-tagged Itk KD (lane 1) was incubated with GST (lane 2) or GST-PLCγ1 C-terminal SH2 domain (GST-PLCγ1 SH2C) (lane 3) each immobilized on glutathione beads in a pull-down assay. […] One μM Itk 32 (lanes 1 and 3) or Itk 32 (R265K) (lanes 2 and 4), were incubated with 250 nM FLAG-tagged full-length Itk in an in vitro kinase assay. Lanes 1 and 2 are no enzyme control. […] One, 3, 5 and 10 μM PLCγ1 SH2C-Y783- (d) or PLCγ1 SH2C(R964A,R696A)-Y783- 3(e), were subjected to phosphorylation by 1.2 μM full-length FLAG-tagged Itk. Lanes 5 and 6 (containing 1 and 10 μM substrate, respectively) are no enzyme controls. Coomassie stain of the gels and anti-FLAG blots (bottom panels) show protein levels. (f & g) Interaction between the SH2 domain and Itk kinase domain is independent of the phosphorylation status of the kinase domain. […] Itk KD that is co-expressed with Lck but also pretreated with alkaline phosphatase is not phosphorylated (lane 3). […]

Molecule | interaction with Lck kinase domain (pull-down) (Lck kinase domain) | interaction with Itk kinase domain (pull-down) (Itk kinase domain)
B1 | direct interaction | interacts directly
B2 | – | interacts directly
